{
  "source": "patent US20120316071A1",
  "about": "(published 2012)",
  "binders": {"B1": {"name": "Fab VH5-51_IGHD5-18*01>3_IGHJ4*01 G100K/G104T G24T/S28R/G35V (H:KT TRV) & V3-4_IGLJ1*01 S30A (Fab, V domains shown)", "VH": "EVQLVQSGAEVKKPGESLKISCKTSGYRFTSYWIVWVRQMPGKGLEWMGIIYPGDSDTRYSPSFQGQVTISADKSISTAYLQWSSLKASDTAMYYCARRKYSYTYDYFDYWGQGTLVTVSS", "VL": "QTVVTQEPSFSVSPGGTVTLTCGLSSGSVATSYYPSWYQQTPGQAPRTLIYSTNTRSSGVPDRFSGSILGNKAALTITGAQADDESDYYCVLYMGSGISYVFGTGTKVTVL", "notes": "Fab; expressed in E. coli with CH1 (Plasmid A, His6 and Flag tags) and lambda CL (Plasmid E); also called H:KT TRV & S30A"}, "B2": {"name": "Fab VH5-51_IGHD5-18*01>3_IGHJ4*01 G100K/G104T G24T/S28R/G35V (H:KT TRV) & V3-4_IGLJ1*01 S32A (Fab, V domains shown)", "VH": "B1 VH", "VL": "B1 VL with A30S, S32A", "notes": "Fab; expressed in E. coli with CH1 (Plasmid A, His6 and Flag tags) and lambda CL (Plasmid E); also called H:KT TRV & S32A"}, "B3": {"name": "Fab VH5-51_IGHD5-18*01>3_IGHJ4*01 G100K/G104T G24T/S28R/G35V (H:KT TRV) & V3-4_IGLJ1*01 S36A (Fab, V domains shown)", "VH": "B1 VH", "VL": "B1 VL with A30S, S36A", "notes": "Fab; expressed in E. coli with CH1 (Plasmid A, His6 and Flag tags) and lambda CL (Plasmid E); also called H:KT TRV & S36A"}, "B4": {"name": "Fab VH5-51_IGHD5-18*01>3_IGHJ4*01 G100K/G104T G24T/S28R/G35V (H:KT TRV) & V3-4_IGLJ1*01 S52A (Fab, V domains shown)", "VH": "B1 VH", "VL": "B1 VL with A30S, S52A", "notes": "Fab; expressed in E. coli with CH1 (Plasmid A, His6 and Flag tags) and lambda CL (Plasmid E); also called H:KT TRV & S52A"}, "B5": {"name": "Fab VH5-51_IGHD5-18*01>3_IGHJ4*01 G100K/G104T G24T/S28R/G35V (H:KT TRV) & V3-4_IGLJ1*01 S96A (Fab, V domains shown)", "VH": "B1 VH", "VL": "B1 VL with A30S, S96A", "notes": "Fab; expressed in E. coli with CH1 (Plasmid A, His6 and Flag tags) and lambda CL (Plasmid E); also called H:KT TRV & S96A"}, "B6": {"name": "Fab VH5-51_IGHD5-18*01>3_IGHJ4*01 G100K/G104T G24T/S28R/G35V (H:KT TRV) & V3-4_IGLJ1*01 S99A (Fab, V domains shown)", "VH": "B1 VH", "VL": "B1 VL with A30S, S99A", "notes": "Fab; expressed in E. coli with CH1 (Plasmid A, His6 and Flag tags) and lambda CL (Plasmid E); also called H:KT TRV & S99A"}, "B7": {"name": "Fab VH5-51_IGHD5-18*01>3_IGHJ4*01 G100K/G104T G24T/S28R/G35V (H:KT TRV) & V3-4_IGLJ1*01 T31A (Fab, V domains shown)", "VH": "B1 VH", "VL": "B1 VL with A30S, T31A", "notes": "Fab; expressed in E. coli with CH1 (Plasmid A, His6 and Flag tags) and lambda CL (Plasmid E); also called H:KT TRV & T31A"}, "B8": {"name": "Fab VH5-51_IGHD5-18*01>3_IGHJ4*01 G100K/G104T G24T/S28R/G35V (H:KT TRV) & V3-4_IGLJ1*01 T53A (Fab, V domains shown)", "VH": "B1 VH", "VL": "B1 VL with A30S, T53A", "notes": "Fab; expressed in E. coli with CH1 (Plasmid A, His6 and Flag tags) and lambda CL (Plasmid E); also called H:KT TRV & T53A"}, "B9": {"name": "Fab VH5-51_IGHD5-18*01>3_IGHJ4*01 G100K/G104T G24T/S28R/G35V (H:KT TRV) & V3-4_IGLJ1*01 T78E (Fab, V domains shown)", "VH": "B1 VH", "VL": "B1 VL with A30S, T78E", "notes": "Fab; expressed in E. coli with CH1 (Plasmid A, His6 and Flag tags) and lambda CL (Plasmid E); also called H:KT TRV & T78E"}, "B10": {"name": "Fab VH5-51_IGHD5-18*01>3_IGHJ4*01 G100K/G104T G24T/S28R/G35V (H:KT TRV) & V3-4_IGLJ1*01 T78K (Fab, V domains shown)", "VH": "B1 VH", "VL": "B1 VL with A30S, T78K", "notes": "Fab; expressed in E. coli with CH1 (Plasmid A, His6 and Flag tags) and lambda CL (Plasmid E); also called H:KT TRV & T78K"}, "B11": {"name": "Fab VH5-51_IGHD5-18*01>3_IGHJ4*01 G100K/G104T G24T/S28R/G35V (H:KT TRV) & V3-4_IGLJ1*01 T78L (Fab, V domains shown)", "VH": "B1 VH", "VL": "B1 VL with A30S, T78L", "notes": "Fab; expressed in E. coli with CH1 (Plasmid A, His6 and Flag tags) and lambda CL (Plasmid E); also called H:KT TRV & T78L"}, "B12": {"name": "Fab VH5-51_IGHD5-18*01>3_IGHJ4*01 G100K/G104T G24T/S28R/G35V (H:KT TRV) & V3-4_IGLJ1*01 T78V (Fab, V domains shown)", "VH": "B1 VH", "VL": "B1 VL with A30S, T78V", "notes": "Fab; expressed in E. coli with CH1 (Plasmid A, His6 and Flag tags) and lambda CL (Plasmid E); also called H:KT TRV & T78V"}, "B13": {"name": "Fab VH5-51_IGHD5-18*01>3_IGHJ4*01 G100K/G104T G24T/S28R/G35V (H:KT TRV) & V3-4_IGLJ1*01 V29A (Fab, V domains shown)", "VH": "B1 VH", "VL": "B1 VL with V29A, A30S", "notes": "Fab; expressed in E. coli with CH1 (Plasmid A, His6 and Flag tags) and lambda CL (Plasmid E); also called H:KT TRV & V29A"}, "B14": {"name": "Fab VH5-51_IGHD5-18*01>3_IGHJ4*01 G100K/G104T G24T/S28R/G35V (H:KT TRV) & V3-4_IGLJ1*01 V91A (Fab, V domains shown)", "VH": "B1 VH", "VL": "B1 VL with A30S, V91A", "notes": "Fab; expressed in E. coli with CH1 (Plasmid A, His6 and Flag tags) and lambda CL (Plasmid E); also called H:KT TRV & V91A"}, "B15": {"name": "Fab VH5-51_IGHD5-18*01>3_IGHJ4*01 G100K/G104T G24T/S28R/G35V (H:KT TRV) & V3-4_IGLJ1*01 Y33A (Fab, V domains shown)", "VH": "B1 VH", "VL": "B1 VL with A30S, Y33A", "notes": "Fab; expressed in E. coli with CH1 (Plasmid A, His6 and Flag tags) and lambda CL (Plasmid E); also called H:KT TRV & Y33A"}, "B16": {"name": "Fab VH5-51_IGHD5-18*01>3_IGHJ4*01 G100K/G104T G24T/S28R/G35V (H:KT TRV) & V3-4_IGLJ1*01 Y34A (Fab, V domains shown)", "VH": "B1 VH", "VL": "B1 VL with A30S, Y34A", "notes": "Fab; expressed in E. coli with CH1 (Plasmid A, His6 and Flag tags) and lambda CL (Plasmid E); also called H:KT TRV & Y34A"}, "B17": {"name": "Fab VH5-51_IGHD5-18*01>3_IGHJ4*01 G100K/G104T G24T/S28R/G35V (H:KT TRV) & V3-4_IGLJ1*01 Y93A (Fab, V domains shown)", "VH": "B1 VH", "VL": "B1 VL with A30S, Y93A", "notes": "Fab; expressed in E. coli with CH1 (Plasmid A, His6 and Flag tags) and lambda CL (Plasmid E); also called H:KT TRV & Y93A"}, "B18": {"name": "Fab VH5-51_IGHD5-18*01>3_IGHJ4*01 G100K/G104T G24T/S28R/G35V (H:KT TRV) & V3-4_IGLJ1*01 V91N (Fab, V domains shown)", "VH": "B1 VH", "VL": "B1 VL with A30S, V91N", "notes": "Fab; expressed from plasmid A (CH1, His6 and Flag tags) and plasmid E (lambda CL)"}, "B19": {"name": "Fab VH5-51_IGHD5-18*01>3_IGHJ4*01 G100K/G104T G24T/S28R/G35V (H:KT TRV) & V3-4_IGLJ1*01 V91P (Fab, V domains shown)", "VH": "B1 VH", "VL": "B1 VL with A30S, V91P", "notes": "as for B18"}, "B20": {"name": "Fab VH5-51_IGHD5-18*01>3_IGHJ4*01 G100K/G104T G24T/S28R/G35V (H:KT TRV) & V3-4_IGLJ1*01 V91S (Fab, V domains shown)", "VH": "B1 VH", "VL": "B1 VL with A30S, V91S", "notes": "as for B18"}, "B21": {"name": "Fab VH5-51_IGHD5-18*01>3_IGHJ4*01 G100K/G104T G24T/S28R/G35V (H:KT TRV) & V3-4_IGLJ1*01 V91T (Fab, V domains shown)", "VH": "B1 VH", "VL": "B1 VL with A30S, V91T", "notes": "as for B18"}, "B22": {"name": "Fab VH5-51_IGHD5-18*01>3_IGHJ4*01 G100K/G104T G24T/S28R/G35V (H:KT TRV) & V3-4_IGLJ1*01 V91W (Fab, V domains shown)", "VH": "B1 VH", "VL": "B1 VL with A30S, V91W", "notes": "as for B18"}},
  "note": "Positions count from the first letter of the chain named. In names and notes the source's numbering stands.",
  "data": [
    {"biological_target": "T1, Recombinant Human DLL4 (human, UniProt Q9NR61 27-524)", "T1 construct": "also called delta-like protein 4; rHuman DLL4", "experiment": "ELISA, DLL4 coated on plate, Fab at 100 nM, absorbance at 450 nm minus blank", "values": [
      {"binder": "B1", "ELISA Signal-blank (100 nM Fab)": 0.344},
      {"binder": "B2", "ELISA Signal-blank (100 nM Fab)": 0.502},
      {"binder": "B3", "ELISA Signal-blank (100 nM Fab)": 0.38},
      {"binder": "B4", "ELISA Signal-blank (100 nM Fab)": 0.574},
      {"binder": "B5", "ELISA Signal-blank (100 nM Fab)": 0.436},
      {"binder": "B6", "ELISA Signal-blank (100 nM Fab)": 0.3},
      {"binder": "B7", "ELISA Signal-blank (100 nM Fab)": 0.552},
      {"binder": "B8", "ELISA Signal-blank (100 nM Fab)": 0.532},
      {"binder": "B9", "ELISA Signal-blank (100 nM Fab)": 0.217},
      {"binder": "B10", "ELISA Signal-blank (100 nM Fab)": 0.48},
      {"binder": "B11", "ELISA Signal-blank (100 nM Fab)": 0.347},
      {"binder": "B12", "ELISA Signal-blank (100 nM Fab)": 0.34},
      {"binder": "B13", "ELISA Signal-blank (100 nM Fab)": 0.394},
      {"binder": "B14", "ELISA Signal-blank (100 nM Fab)": 0.606},
      {"binder": "B15", "ELISA Signal-blank (100 nM Fab)": 0.301},
      {"binder": "B16", "ELISA Signal-blank (100 nM Fab)": 0.085},
      {"binder": "B17", "ELISA Signal-blank (100 nM Fab)": 0.185}
    ]},
    {"biological_target": "T2, Recombinant Human DLL4 (human, UniProt Q9NR61 27-524)", "T2 construct": "Bought recombinant human DLL4 (R&D Systems Cat#1506-D4/CF); also called delta-like protein 4; Delta-like 4", "experiment": "ELISA, DLL4 coated on the plate, Fab at 100 nM, signal minus blank", "values": [
      {"binder": "B18", "ELISA Signal-blank (100 nM Fab)": 0.203},
      {"binder": "B19", "ELISA Signal-blank (100 nM Fab)": 0.078},
      {"binder": "B20", "ELISA Signal-blank (100 nM Fab)": 0.264},
      {"binder": "B21", "ELISA Signal-blank (100 nM Fab)": 0.197},
      {"binder": "B22", "ELISA Signal-blank (100 nM Fab)": 0.08}
    ]}
  ]
}
